# Test results taken from US20240002531A1 (ONO PHARMACEUTICAL, published 2024).
# T1: HER2 peptide 613-632 (amino acids 613 to 632 of human HER2) (human)
# T1 construct: Synthetic peptide
# T1 peptide: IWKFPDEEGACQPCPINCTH
# T2: F616A peptide (HER2 603-622 with F616A) (human)
# T2 peptide: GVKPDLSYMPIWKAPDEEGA
# T3: I613A peptide (HER2 603-622 with I613A) (human)
# T3 construct: also called 1613A
# T3 peptide: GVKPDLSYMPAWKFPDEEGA
# T4: W614A peptide (HER2 603-622 with W614A) (human)
# T4 peptide: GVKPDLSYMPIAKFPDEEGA
# T5: K615A peptide (HER2 603-622 with K615A) (human)
# T5 peptide: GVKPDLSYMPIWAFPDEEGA
# T6: P617A peptide (HER2 603-622 with P617A) (human)
# T6 peptide: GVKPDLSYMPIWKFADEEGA
# T7: G621A peptide (HER2 603-622 with G621A) (human)
# T7 peptide: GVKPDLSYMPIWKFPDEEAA
# T8: P606A peptide (HER2 603-622 with P606A) (human)
# T8 peptide: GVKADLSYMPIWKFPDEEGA
# T9: D607A peptide (HER2 603-622 with D607A) (human)
# T9 peptide: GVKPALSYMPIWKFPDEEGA
# T10: L608A peptide (HER2 603-622 with L608A) (human)
# T10 peptide: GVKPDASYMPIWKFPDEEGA
# T11: Y610A peptide (HER2 603-622 with Y610A) (human)
# T11 peptide: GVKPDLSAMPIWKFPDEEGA
# T12: A622G peptide (HER2 603-622 with A622G) (human)
# T12 peptide: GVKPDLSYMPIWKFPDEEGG
# T13: V604A peptide (HER2 603-622 with V604A) (human)
# T13 peptide: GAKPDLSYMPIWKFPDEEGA
# T14: P612A peptide (HER2 603-622 with P612A) (human)
# T14 peptide: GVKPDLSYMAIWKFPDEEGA
# T15: E620A peptide (HER2 603-622 with E620A) (human)
# T15 peptide: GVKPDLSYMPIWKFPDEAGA
# T16: E619A peptide (HER2 603-622 with E619A) (human)
# T16 peptide: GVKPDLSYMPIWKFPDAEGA
# T17: D618A peptide (HER2 603-622 with D618A) (human)
# T17 peptide: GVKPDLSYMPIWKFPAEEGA
# T18: K605A peptide (HER2 603-622 with K605A) (human)
# T18 peptide: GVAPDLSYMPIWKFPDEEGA
# T19: S609A peptide (HER2 603-622 with S609A) (human)
# T19 peptide: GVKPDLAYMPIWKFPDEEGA
# T20: G603A peptide (HER2 603-622 with G603A) (human)
# T20 peptide: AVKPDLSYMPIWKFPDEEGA
# T21: HER2 peptide p603-622 (amino acids 603 to 622 of human HER2) (human)
# T21 construct: Synthetic peptide; also called wild-type HER2 peptide
# T21 peptide: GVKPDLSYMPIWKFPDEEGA
# B1: H2Mab-214 antibody (antibody, V domains shown)
# VH: QVTLKESGPGILQPSQTLSLTCSFSGFSLSTSGMGVSWIRQPSGKGLEWLAHIFWDDDKRYNPSLKSRLTISKDTSRNKVFLKITSVDTADTATYYCARRVVATDWYFDVWGAGTTVTVSS
# VL: DIVLTQSPASLAVSLGQRATISCRASESVEYYGTTLMQWYQQKPGQPPKLLIYAASKVESGVPARFSGSGSGTDFSLNIHPVEEDDVAMYFCQQSRKVPLTFGAGTKLELKR
# notes: Mouse monoclonal from a hybridoma (immunogen HER2ec made in LN229 cells); also called antibody of the present invention
# B2: H2Mab-250 antibody (antibody, V domains shown)
# VH: EVQLVESGGGLVQPGGSLKLSCAASGFTFSNYGMSWVRQTPDRRLELVATINNNGGGTYYPDSVKGRFTISRDNAKNTLYLQMSSLKSEDTAMYYCTSPGLLWDAWGAGTTVTVSS
# VL: not shown
# notes: as for B1
# Legend:
# [1] = target: T1, HER2 peptide 613-632 (amino acids 613 …); assay: ELISA, peptide coated at 10 µg/ml, antibody 10 µg/ml
# [2] = target: T2, F616A peptide (HER2 603-622 with F616A); assay: SPR Biacore, mAb on chip, peptide analyte, equilibrium analysis
# [3] = target: T3, I613A peptide (HER2 603-622 with I613A); assay: as above
# [4] = target: T4, W614A peptide (HER2 603-622 with W614A); assay: as above
# [5] = target: T5, K615A peptide (HER2 603-622 with K615A); assay: as above
# [6] = target: T6, P617A peptide (HER2 603-622 with P617A); assay: SPR Biacore, mAb on chip, peptide analyte, 1:1 fit;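 note: binding measured at 25 °C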
# [7] = target: T7, G621A peptide (HER2 603-622 with G621A); assay: SPR Biacore, mAb on chip, peptide analyte, 1:1 fit;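 note: binding measured at 25 °C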
# [8] = target: T8, P606A peptide (HER2 603-622 with P606A); assay: SPR Biacore, mAb on chip, peptide analyte, 1:1 fit;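 note: binding measured at 25 °C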
# [9] = target: T9, D607A peptide (HER2 603-622 with D607A); assay: SPR Biacore, mAb on chip, peptide analyte, 1:1 fit;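 note: binding measured at 25 °C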
# [10] = target: T10, L608A peptide (HER2 603-622 with L608A); assay: SPR Biacore, mAb on chip, peptide analyte, 1:1 fit;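 note: binding measured at 25 °C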
# [11] = target: T11, Y610A peptide (HER2 603-622 with Y610A); assay: SPR Biacore, mAb on chip, peptide analyte, 1:1 fit;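 note: binding measured at 25 °C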
# [12] = target: T12, A622G peptide (HER2 603-622 with A622G); assay: SPR Biacore, mAb on chip, peptide analyte, 1:1 fit
# [13] = target: T13, V604A peptide (HER2 603-622 with V604A); assay: SPR Biacore, mAb on chip, peptide analyte, 1:1 fit
# [14] = target: T14, P612A peptide (HER2 603-622 with P612A); assay: SPR Biacore, mAb on chip, peptide analyte, 1:1 fit
# [15] = target: T15, E620A peptide (HER2 603-622 with E620A); assay: SPR Biacore, mAb on chip, peptide analyte, 1:1 fit
# [16] = target: T16, E619A peptide (HER2 603-622 with E619A); assay: SPR Biacore, mAb on chip, peptide analyte, 1:1 fit
# [17] = target: T17, D618A peptide (HER2 603-622 with D618A); assay: SPR Biacore, mAb on chip, peptide analyte, 1:1 fit
# [18] = target: T18, K605A peptide (HER2 603-622 with K605A); assay: SPR Biacore, mAb on chip, peptide analyte, 1:1 fit
# [19] = target: T19, S609A peptide (HER2 603-622 with S609A); assay: SPR Biacore, mAb on chip, peptide analyte, 1:1 fit
# [20] = target: T20, G603A peptide (HER2 603-622 with G603A); assay: SPR Biacore, mAb on chip, peptide analyte, 1:1 fit
# [21] = target: T21, HER2 peptide p603-622 (amino acids 603 …); assay: SPR Biacore, mAb on chip, peptide analyte, 1:1 fit
# [22] = target: T22, HER2-F616A expressed on CHO-K1 cells (human, UniProt P04626 23-1255); assay: flow cytometry on CHO-K1 cells expressing HER2-F616A
# T22 construct: also called F616A point mutant; not shown: PA tag at the N terminus; RAP tag and MAP tag at the C terminus
binder,measurement,setting,value
B1,binding result,[1],binds
same,Kd,[2],410000 nM
same,Kd,[3],39300 nM
same,Kd,[4],1460 nM
same,Kd,[5],578000 nM
same,Kd,[6],43.9 nM
same,koff,[6],0.00716 s⁻¹
same,kon,[6],163000 M⁻¹ s⁻¹
same,Kd,[7],20.4 nM
same,koff,[7],0.0059 s⁻¹
same,kon,[7],290000 M⁻¹ s⁻¹
same,Kd,[8],17.6 nM
same,koff,[8],0.00578 s⁻¹
same,kon,[8],329000 M⁻¹ s⁻¹
same,Kd,[9],17.6 nM
same,koff,[9],0.00588 s⁻¹
same,kon,[9],334000 M⁻¹ s⁻¹
same,Kd,[10],48.7 nM
same,koff,[10],0.00739 s⁻¹
same,kon,[10],152000 M⁻¹ s⁻¹
same,Kd,[11],26.7 nM
same,koff,[11],0.00603 s⁻¹
same,kon,[11],226000 M⁻¹ s⁻¹
same,Kd,[12],15.5 nM
same,koff,[12],0.00567 s⁻¹
same,kon,[12],366000 M⁻¹ s⁻¹
same,Kd,[13],22.7 nM
same,koff,[13],0.00619 s⁻¹
same,kon,[13],273000 M⁻¹ s⁻¹
same,Kd,[14],46.8 nM
same,koff,[14],0.0125 s⁻¹
same,kon,[14],267000 M⁻¹ s⁻¹
same,Kd,[15],42 nM
same,koff,[15],0.00762 s⁻¹
same,kon,[15],182000 M⁻¹ s⁻¹
same,Kd,[16],66.2 nM
same,koff,[16],0.0111 s⁻¹
same,kon,[16],168000 M⁻¹ s⁻¹
same,Kd,[17],49.1 nM
same,koff,[17],0.0125 s⁻¹
same,kon,[17],254000 M⁻¹ s⁻¹
same,Kd,[18],26.5 nM
same,koff,[18],0.00643 s⁻¹
same,kon,[18],243000 M⁻¹ s⁻¹
same,Kd,[19],33.2 nM
same,koff,[19],0.00659 s⁻¹
same,kon,[19],199000 M⁻¹ s⁻¹
same,Kd,[20],16.9 nM
same,koff,[20],0.00564 s⁻¹
same,kon,[20],335000 M⁻¹ s⁻¹
same,Kd,[21],22.8 nM
same,koff,[21],0.00543 s⁻¹
same,kon,[21],238000 M⁻¹ s⁻¹
B2,binding result,[1],binds
same,binding result,[22],binds
